Experimental findings from IntAct's records for PubMed 31515488 are described below.

First the molecules themselves.
B1: Isoform Long of Autophagy protein 5 (Homo sapiens), Q9H1Y0-1 (parent)
chain: MTDDKDVLRDVWFGRIPTCFTLYQDEITEREAEPYYLLLPRVSYLTLVTDKVKKHFQKVMRQEDISEIWFEYEGTPLKWHYPIGLLFDLLASSSALPWNITVHFKSFPEKDLLHCPSKDAIEAHFMSCMKEADALKHKSQVINEMQKKDHKQLWMGLQNDRFDQFWAINRKLMEYPAEENGFRYIPFRIYQTTTERPFIQKLFRPVAADGQLHTLGDLLKEVCPSAIDPEDGEKKNQVMIHGIEPMLETPLQWLSEHLSYPDNFLHISIIPQPTD
partner: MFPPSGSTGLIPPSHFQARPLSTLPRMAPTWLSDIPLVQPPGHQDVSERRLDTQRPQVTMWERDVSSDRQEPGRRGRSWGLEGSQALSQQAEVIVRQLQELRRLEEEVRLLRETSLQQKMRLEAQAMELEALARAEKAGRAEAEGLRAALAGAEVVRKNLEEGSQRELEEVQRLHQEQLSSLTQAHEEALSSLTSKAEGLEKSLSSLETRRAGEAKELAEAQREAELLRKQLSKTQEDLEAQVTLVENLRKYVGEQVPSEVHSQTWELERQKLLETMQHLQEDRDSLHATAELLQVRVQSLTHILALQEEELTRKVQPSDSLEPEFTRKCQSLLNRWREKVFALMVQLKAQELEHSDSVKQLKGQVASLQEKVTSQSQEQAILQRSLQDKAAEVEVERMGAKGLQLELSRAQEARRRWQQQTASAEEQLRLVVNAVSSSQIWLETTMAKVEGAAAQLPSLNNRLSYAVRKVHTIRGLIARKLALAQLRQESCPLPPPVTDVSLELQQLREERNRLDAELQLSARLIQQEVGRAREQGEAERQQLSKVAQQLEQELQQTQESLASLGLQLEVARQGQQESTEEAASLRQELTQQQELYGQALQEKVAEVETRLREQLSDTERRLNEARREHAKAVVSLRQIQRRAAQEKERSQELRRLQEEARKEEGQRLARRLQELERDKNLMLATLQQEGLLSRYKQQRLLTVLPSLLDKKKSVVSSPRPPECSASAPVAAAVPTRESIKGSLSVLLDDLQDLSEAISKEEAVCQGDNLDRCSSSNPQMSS
B2: "Peptide-N(4)-(N-acetyl-beta-glucosaminyl)asparagine amidase" (Homo sapiens), Q96IV0 (parent)
chain: MAAAALGSSSGSASPAVAELCQNTPETFLEASKLLLTYADNILRNPNDEKYRSIRIGNTAFSTRLLPVRGAVECLFEMGFEEGETHLIFPKKASVEQLQKIRDLIAIERSSRLDGSNKSHKVKSSQQPAASTQLPTTPSSNPSGLNQHTRNRQGQSSDPPSASTVAADSAILEVLQSNIQHVLVYENPALQEKALACIPVQELKRKSQEKLSRARKLDKGINISDEDFLLLELLHWFKEEFFHWVNNVLCSKCGGQTRSRDRSLLPSDDELKWGAKEVEDHYCDACQFSNRFPRYNNPEKLLETRCGRCGEWANCFTLCCRAVGFEARYVWDYTDHVWTEVYSPSQQRWLHCDACEDVCDKPLLYEIGWGKKLSYVIAFSKDEVVDVTWRYSCKHEEVIARRTKVKEALLRDTINGLNKQRQLFLSENRRKELLQRIIVELVEFISPKTPKPGELGGRISGSVAWRVARGEMGLQRKETLFIPCENEKISKQLHLCYNIVKDRYVRVSNNNQTISGWENGVWKMESIFRKVETDWHMVYLARKEGSSFAYISWKFECGSVGLKVDSISIRTSSQTFQTGTVEWKLRSDTAQVELTGDNSLHSYADFSGATEVILEAELSRGDGDVAWQHTQLFRQSLNDHEENCLEIIIKFSDL
B3: von Hippel-Lindau disease tumor suppressor (Homo sapiens), P40337-2 (parent)
chain: MPRRAENWDEAEVGAEEAGVEEYGPEEDGGEESGAEESGPEESGPEELGAEEEMEAGRPRPVLRSVNSREPSQVIFCNRSPRVVLPVWLNFDGEPQPYPTLPPGTGRRIHSYRVYTLKERCLQVVRSLVKPENYRRLDIVRSLYEDLEDHPNVQKDLERLTQERIAHQRMGD
B4: Protein LDOC1 (Homo sapiens), O95751 (parent)
chain: MVDELVLLLHALLMRHRALSIENSQLMEQLRLLVCERASLLRQVRPPSCPVPFPETFNGESSRLPEFIVQTASYMLVNENRFCNDAMKVAFLISLLTGEAEEWVVPYIEMDSPILGDYRAFLDEMKQCFGWDDDEDDDDEEEEDDY
partner: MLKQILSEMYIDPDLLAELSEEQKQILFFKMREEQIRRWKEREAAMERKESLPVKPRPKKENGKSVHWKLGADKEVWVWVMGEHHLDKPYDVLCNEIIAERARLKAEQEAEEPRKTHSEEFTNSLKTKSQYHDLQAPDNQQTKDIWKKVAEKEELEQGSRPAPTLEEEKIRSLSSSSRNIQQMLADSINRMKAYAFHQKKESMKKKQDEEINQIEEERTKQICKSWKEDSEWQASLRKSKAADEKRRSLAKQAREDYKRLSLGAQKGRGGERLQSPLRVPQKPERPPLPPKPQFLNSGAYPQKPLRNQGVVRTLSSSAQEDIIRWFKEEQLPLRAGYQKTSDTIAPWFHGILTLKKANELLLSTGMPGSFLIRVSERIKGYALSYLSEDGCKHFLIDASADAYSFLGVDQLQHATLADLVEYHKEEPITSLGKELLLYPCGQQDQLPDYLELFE
B5: Ras-related protein Rab-39B (Homo sapiens), Q96DA2 (parent)
chain: MEAIWLYQFRLIVIGDSTVGKSCLIRRFTEGRFAQVSDPTVGVDFFSRLVEIEPGKRIKLQIWDTAGQERFRSITRAYYRNSVGGLLLFDITNRRSFQNVHEWLEETKVHVQPYQIVFVLVGHKCDLDTQRQVTRHEAEKLAAAYGMKYIETSARDAINVEKAFTDLTRDIYELVKRGEITIQEGWEGVKSGFVPNVVHSSEEVVKSERRCLC
B6: Beta-crystallin A4 (Homo sapiens), P53673 (parent)
chain: MTLQCTKSAGPWKMVVWDEDGFQGRRHEFTAECPSVLELGFETVRSLKVLSGAWVGFEHAGFQGQQYILERGEYPSWDAWGGNTAYPAERLTSFRPAACANHRDSRLTIFEQENFLGKKGELSDDYPSLQAMGWEGNEVGSFHVHSGAWVCSQFPGYRGFQYVLECDHHSGDYKHFREWGSHAPTFQVQSIRRIQQ

The first experiment covers variants of B1. The following applies: with cchcr_human CCHCR1, Q8TD31.
As for K58M, the “effect of a mutation on the interaction” value is “with no effect”.

The variants in a further experiment derive from B2. As to conditions: with ubql1_human UBQLN1, Q9UMX0.
ubql1_human UBQLN1, Q9UMX0, sequence (Q9UMX0 whole entry): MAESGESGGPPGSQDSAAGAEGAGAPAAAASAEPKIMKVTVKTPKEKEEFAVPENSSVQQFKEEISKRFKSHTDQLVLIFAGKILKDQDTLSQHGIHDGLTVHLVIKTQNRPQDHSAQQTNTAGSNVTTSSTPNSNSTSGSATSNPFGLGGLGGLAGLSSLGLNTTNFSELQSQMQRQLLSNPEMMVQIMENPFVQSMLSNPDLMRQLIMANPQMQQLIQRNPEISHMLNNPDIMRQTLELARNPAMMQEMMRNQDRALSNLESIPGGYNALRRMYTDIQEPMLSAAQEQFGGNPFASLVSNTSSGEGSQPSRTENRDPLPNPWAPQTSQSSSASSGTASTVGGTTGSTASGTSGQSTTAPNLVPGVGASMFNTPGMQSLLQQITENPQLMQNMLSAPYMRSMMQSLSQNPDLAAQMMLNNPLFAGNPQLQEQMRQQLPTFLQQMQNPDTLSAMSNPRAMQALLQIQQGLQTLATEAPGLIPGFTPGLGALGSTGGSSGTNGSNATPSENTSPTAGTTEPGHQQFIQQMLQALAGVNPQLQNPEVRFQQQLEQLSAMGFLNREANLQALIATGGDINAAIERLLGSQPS
F292L: the “effect of a mutation on the interaction” value is “with no effect”. Regarding V184F, the “effect of a mutation on the interaction” value is recorded as “with no effect”.

A further experiment covers variants of B2. As to conditions: with trad1_human TRAFD1, O14545.
trad1_human TRAFD1, O14545, sequence (O14545 whole entry): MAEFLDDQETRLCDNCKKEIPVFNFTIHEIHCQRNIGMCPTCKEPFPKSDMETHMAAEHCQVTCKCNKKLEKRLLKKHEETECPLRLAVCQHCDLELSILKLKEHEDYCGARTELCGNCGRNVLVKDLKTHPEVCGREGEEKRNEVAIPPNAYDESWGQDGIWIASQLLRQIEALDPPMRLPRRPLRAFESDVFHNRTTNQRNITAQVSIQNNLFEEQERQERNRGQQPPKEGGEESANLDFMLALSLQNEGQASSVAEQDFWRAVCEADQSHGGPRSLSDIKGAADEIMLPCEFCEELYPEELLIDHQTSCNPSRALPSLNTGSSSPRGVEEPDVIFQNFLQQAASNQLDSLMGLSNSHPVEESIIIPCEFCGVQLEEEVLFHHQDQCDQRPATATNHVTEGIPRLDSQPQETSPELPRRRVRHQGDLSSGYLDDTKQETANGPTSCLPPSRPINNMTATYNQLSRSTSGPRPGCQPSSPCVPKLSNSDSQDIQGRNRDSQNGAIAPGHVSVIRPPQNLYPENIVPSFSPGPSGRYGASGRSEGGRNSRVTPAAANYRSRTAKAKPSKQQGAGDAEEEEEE
F292L: the “effect of a mutation on the interaction” value is given as “with no effect”. Consider V184F, for which the “effect of a mutation on the interaction” value was “with no effect”.

Variants of B2 are the subject of a further experiment. The following applies: with gucd1_human GUCD1, Q96NT3.
gucd1_human GUCD1, Q96NT3, sequence (Q96NT3 whole entry): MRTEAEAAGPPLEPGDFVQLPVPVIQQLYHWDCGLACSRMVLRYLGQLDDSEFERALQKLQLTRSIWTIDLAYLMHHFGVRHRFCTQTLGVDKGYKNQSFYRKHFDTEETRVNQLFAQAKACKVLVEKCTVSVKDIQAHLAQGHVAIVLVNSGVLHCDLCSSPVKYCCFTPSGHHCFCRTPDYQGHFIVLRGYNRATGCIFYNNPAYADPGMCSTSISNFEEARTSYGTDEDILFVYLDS
Regarding V184F, the “effect of a mutation on the interaction” value is on record as “with no effect”.

Variants of B3 are the subject of another experiment. As to conditions: with mdfi_human MDFI.
For the variant H167D, the “effect of a mutation on the interaction” value is “disrupting interaction strength”.

On to F76S, for which the “effect of a mutation on the interaction” value was “disrupting interaction strength”. On the same count and under the same terms, the entry for S65W is “with no effect”.

In a further experiment the parent is B4. As to conditions: with sh24a_human SH2D4A.
Consider L12H, for which the “effect of a mutation on the interaction” value is “disrupting interaction strength”.

The next experiment covers variants of B5. The following applies: with rufy1_human RUFY1, Q96T51.
rufy1_human RUFY1, Q96T51, sequence (Q96T51 whole entry): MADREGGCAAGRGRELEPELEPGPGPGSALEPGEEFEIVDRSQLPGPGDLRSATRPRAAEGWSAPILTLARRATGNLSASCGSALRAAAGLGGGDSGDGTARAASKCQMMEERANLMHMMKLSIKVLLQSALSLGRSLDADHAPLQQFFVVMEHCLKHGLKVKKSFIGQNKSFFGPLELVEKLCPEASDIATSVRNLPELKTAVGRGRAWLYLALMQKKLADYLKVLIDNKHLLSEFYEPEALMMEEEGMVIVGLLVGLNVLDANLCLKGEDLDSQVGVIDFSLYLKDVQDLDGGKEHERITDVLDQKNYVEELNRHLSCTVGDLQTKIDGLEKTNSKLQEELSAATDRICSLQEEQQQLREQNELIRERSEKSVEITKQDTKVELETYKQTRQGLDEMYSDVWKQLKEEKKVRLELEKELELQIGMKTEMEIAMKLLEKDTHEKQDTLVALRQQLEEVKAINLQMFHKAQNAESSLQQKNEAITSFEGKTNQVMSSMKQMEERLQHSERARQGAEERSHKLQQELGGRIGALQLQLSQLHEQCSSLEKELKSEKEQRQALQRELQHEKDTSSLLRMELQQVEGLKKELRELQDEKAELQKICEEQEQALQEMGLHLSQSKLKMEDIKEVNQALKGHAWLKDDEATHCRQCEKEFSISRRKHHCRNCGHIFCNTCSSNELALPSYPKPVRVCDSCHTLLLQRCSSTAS
With R177S, the “effect of a mutation on the interaction” value was “disrupting interaction strength”.

The next experiment covers variants of B6. The following applies: with cep76_human CEP76, Q8TAP6.
cep76_human CEP76, Q8TAP6, sequence (Q8TAP6 whole entry): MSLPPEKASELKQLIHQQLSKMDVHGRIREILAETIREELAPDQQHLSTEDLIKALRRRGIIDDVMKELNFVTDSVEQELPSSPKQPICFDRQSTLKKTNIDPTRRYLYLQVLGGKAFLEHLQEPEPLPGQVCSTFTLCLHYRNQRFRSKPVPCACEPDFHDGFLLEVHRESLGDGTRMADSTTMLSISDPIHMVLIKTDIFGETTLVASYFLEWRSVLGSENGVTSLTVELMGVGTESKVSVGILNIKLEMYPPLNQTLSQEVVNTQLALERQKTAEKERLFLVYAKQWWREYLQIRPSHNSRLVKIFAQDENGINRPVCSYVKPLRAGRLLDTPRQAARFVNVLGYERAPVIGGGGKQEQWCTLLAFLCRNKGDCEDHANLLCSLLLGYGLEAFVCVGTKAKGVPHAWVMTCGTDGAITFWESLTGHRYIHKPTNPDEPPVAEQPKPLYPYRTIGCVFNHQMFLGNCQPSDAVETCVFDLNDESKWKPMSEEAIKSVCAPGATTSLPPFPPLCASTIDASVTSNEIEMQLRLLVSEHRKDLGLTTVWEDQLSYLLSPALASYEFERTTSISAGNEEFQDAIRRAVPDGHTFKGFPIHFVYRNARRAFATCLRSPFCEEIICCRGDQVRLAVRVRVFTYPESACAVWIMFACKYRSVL
For the variant R103C, the “effect of a mutation on the interaction” value was “with no effect”.
